{"source": "paper PMC6779467", "about": "“Cytoplasmic protein misfolding titrates Hsp70 to activate nuclear Hsf1”", "binders": {"B1": {"name": "HSE-DY682 (dsDNA)", "DNA 1": "TCGATTTTCCAGAACGTTCCATCGGC", "DNA 2": "GCCGATGGAACGTTCTGGAAAATCGA"}}, "target": "Hsf1-StrepTag II;Ssa1 (Hsp70) (Saccharomyces cerevisiae;Saccharomyces …, UniProt P10961;P10591 1-833;1-642, |)", "sequence (P10961 whole entry, chain 1 of 2)": "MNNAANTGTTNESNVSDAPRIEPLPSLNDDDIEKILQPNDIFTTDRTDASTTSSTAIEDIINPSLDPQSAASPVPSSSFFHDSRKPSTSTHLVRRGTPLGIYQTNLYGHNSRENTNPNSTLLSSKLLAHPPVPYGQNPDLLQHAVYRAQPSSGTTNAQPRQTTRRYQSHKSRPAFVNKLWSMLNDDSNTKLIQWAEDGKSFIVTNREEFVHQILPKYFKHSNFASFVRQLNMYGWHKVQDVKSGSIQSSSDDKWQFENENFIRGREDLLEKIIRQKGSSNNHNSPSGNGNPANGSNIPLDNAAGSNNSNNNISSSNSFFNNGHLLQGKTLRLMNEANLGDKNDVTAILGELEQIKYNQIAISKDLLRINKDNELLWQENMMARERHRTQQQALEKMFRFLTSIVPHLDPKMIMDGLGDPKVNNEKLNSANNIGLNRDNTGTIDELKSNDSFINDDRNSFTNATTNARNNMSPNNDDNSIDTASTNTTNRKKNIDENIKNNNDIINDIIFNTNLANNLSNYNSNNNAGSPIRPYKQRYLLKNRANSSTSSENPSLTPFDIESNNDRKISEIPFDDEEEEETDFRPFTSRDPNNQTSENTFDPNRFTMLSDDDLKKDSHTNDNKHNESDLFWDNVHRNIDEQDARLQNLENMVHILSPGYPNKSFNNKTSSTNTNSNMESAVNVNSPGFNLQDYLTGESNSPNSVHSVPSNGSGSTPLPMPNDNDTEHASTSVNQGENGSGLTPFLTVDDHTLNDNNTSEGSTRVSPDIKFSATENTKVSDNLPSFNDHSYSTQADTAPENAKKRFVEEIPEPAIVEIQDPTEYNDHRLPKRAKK", "sequence (P10591 whole entry, chain 2 of 2)": "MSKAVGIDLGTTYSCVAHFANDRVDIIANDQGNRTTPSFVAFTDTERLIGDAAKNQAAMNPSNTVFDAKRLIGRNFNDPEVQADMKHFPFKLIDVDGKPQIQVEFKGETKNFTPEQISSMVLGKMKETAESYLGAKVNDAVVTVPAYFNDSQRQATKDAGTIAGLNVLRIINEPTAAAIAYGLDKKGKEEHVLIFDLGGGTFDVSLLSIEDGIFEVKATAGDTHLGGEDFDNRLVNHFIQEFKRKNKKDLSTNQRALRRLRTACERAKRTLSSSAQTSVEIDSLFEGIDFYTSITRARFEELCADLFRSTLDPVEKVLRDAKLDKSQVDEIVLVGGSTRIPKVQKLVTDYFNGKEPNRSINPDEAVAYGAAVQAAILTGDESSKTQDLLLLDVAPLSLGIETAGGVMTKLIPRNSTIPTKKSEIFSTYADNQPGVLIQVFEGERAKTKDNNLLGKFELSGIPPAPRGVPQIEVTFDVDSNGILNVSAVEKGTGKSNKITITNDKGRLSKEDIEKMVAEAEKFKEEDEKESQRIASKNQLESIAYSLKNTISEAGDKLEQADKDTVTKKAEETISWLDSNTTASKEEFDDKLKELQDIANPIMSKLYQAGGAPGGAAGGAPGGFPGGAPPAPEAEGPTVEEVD", "assay": "EMSA; 0.25 uM complex, 0.05 uM probe; 10 mM Tris-HCl pH 7.5, 50 mM KCl, 2.5 mM DTT, 0.25% Tween 20, 20 min at 20 C; 6% DNA retardation gel in TBE (modified: 1 mM MgCl2, no DTT listed, 0.7% agarose)", "conditions": "protein: recombinant;recombinant; tags: C-terminal StrepTag II;6xHis-SUMO removed by Ulp1; chain copies: 3;1; blunt"}
{"binder": "B1", "values": [{"measurement": "binding result", "result": "binds"}]}
